Reference: US20220160939A1, “SELF-ASSEMBLING PEPTIDES AS BRONCHIAL OBSTRUCTION AGENTS” (3-D MATRIX, LTD., priority 2014, published 2022)
Where no end group is shown, it is not given here.

Experiments:
Type in all cases: physicochemical
[1] = pH and appearance of 2.5% peptide solutions after adding 0.1 N NaOH
Method: To adjust the pH level of the peptide solutions by way of example, 0.1 N NaOH was added to 2 mL of 2.5% peptide solutions and their pH and appearance were measured.

[2] = Rheological properties of peptide solutions at adjusted salt ionic strength
Method: Based on the visual observation of the effect of salt ionic strength on the properties of the peptide solutions, the effect on the rheological properties of the peptide solutions after adjusting their ionic strength level with NaCl to 0.7 M (PuraMatrix® (SEQ ID NO:1)), 0.2 M (KLD12 (SEQ ID NO:3)) or 0.02 M (IEIK13 (SEQ ID NO:2)), which is closely below the critical ionic strength at which each peptide becomes cloudy, was evaluated. If the ionic strength levels with NaCl of peptide solutions are higher than 0.9 M (PuraMatrix® (SEQ ID NO:1)), 0.3 M (KLD12 (SEQ ID NO:3)) or 0.03 M (IEIK13 (SEQ ID NO:2)), the peptide solutions begin phase separation becoming cloudy and weak. The rheological property of PuraMatrix® (SEQ ID NO:1), KLD12 (SEQ ID NO:3) and IEIK13 (SEQ ID NO:2) solutions was higher after adjusting their ionic strength level with NaCl to 0.7 M (PuraMatrix® (SEQ ID NO:1)), 0.2 M (KLD12 (SEQ ID NO:3)) or 0.02 M (IEIK13 (SEQ ID NO:2)). The results are shown in FIG. 10 for KLD12 (SEQ ID NO:3) 1%, FIG. 11 for IEIK13 (SEQ ID NO:2) 1%, and FIG. 12 for PuraMatrix® (SEQ ID NO:1) 1%, respectively. Frequency sweep tests were performed from 1 rad/s to 10 rad/s at 1 Pa.
Based on the results of the effect on the rheological properties of the peptide solutions after adjusting their ionic strength level with NaCl to 0.7 M (PuraMatrix® (SEQ ID NO:1)), 0.2 M (KLD12 (SEQ ID NO:3)) or 0.02 M (IEIK13 (SEQ ID NO:2)), the effect on the rheological properties of the peptide solution at various salt ionic strengths was evaluated. […] The results are shown in FIG. 13 for PuraMatrix® (SEQ ID NO:1) 1% solutions and in FIG. 14 for IEIK13 (SEQ ID NO:2) 1% solutions. Frequency sweep tests were performed from 1 rad/sec to 10 rad/sec at 1 Pa and the storage modulus at 1 rad/sec was selected for data.
Based on the results of the effect on the rheological properties of the peptide solutions and hydrogels after adjusting their ionic strength levels with NaCl, the effect of various salts (KCl, MgCl2, and CaCl2) was also evaluated. The rheological property of PuraMatrix® (SEQ ID NO:1) solutions increases with ionic strength adjustment at 0.15 M of all the salts. Increases of the rheological property of PuraMatrix® (SEQ ID NO:1) solutions with various salts were not predominantly different. However, increases of the rheological property of PuraMatrix® (SEQ ID NO:1) solutions may vary depending on the salting out constant, K of each salt. Constant K is a constant in Cohen's equation: log S=B−KI, where S is solubility, B is idealized solubility, K is salting out constant, and I is ionic strength. With a higher value of constant K and ionic strength of salts, solubility of the peptide may decrease resulting in strong peptide self-assembly with increased hydrophobic effect and higher rheological properties of the peptide solution. The constant K of NaCl may be higher than the other salts. […] The results are shown in FIG. 17 for PuraMatrix® (SEQ ID NO:1) 1% solution before DMEM treatment, and in FIG. 18 for PuraMatrix® (SEQ ID NO:1) 1% hydrogels after DMEM treatment for 10 min Frequency sweep tests were performed from 1 rad/sec to 10 rad/sec at 1 Pa and the storage modulus at 1 rad/sec was selected for data.

[3] = Appearance of 1.5% peptide solutions with various salts at room temperature; settings: for Appearance: room temperature
Method: The effect of salt ionic strength level on the properties of peptide solutions was evaluated to identify optimized salt ionic strength levels for the peptides as described herein. Increasing the salt ionic strength level of PuraMatrix® (SEQ ID NO:1) and other peptides may generally improve its function and mechanical strength for various clinical applications. To adjust the salt ionic strength of the peptide solutions by way of example, various salt buffer solutions including NaCl, KCl, MgCl2, CaCl2 and DPBS (10×) were added to 2 mL of 1.5% peptide solutions.

KLDLKLDLKLDL [KLD12]
Clear, thick, stiffer gel: Appearance ([3]; CaCl2 0.05 M, ionic strength 0.15 M, conc. 1.48%) | Appearance ([3]; CaCl2 0.067 M, ionic strength 0.2 M, conc. 1.47%) | Appearance ([3]; CaCl2 0.083 M, ionic strength 0.25 M, conc. 1.46%) | Appearance ([3]; CaCl2 0.1 M, ionic strength 0.3 M, conc. 1.45%) | Appearance ([3]; CaCl2 0.117 M, ionic strength 0.35 M, conc. 1.44%) | Appearance ([3]; KCl 0.05 M, ionic strength 0.5 M, conc. 1.48%) | Appearance ([3]; KCl 0.1 M, ionic strength 0.1 M, conc. 1.45%) | Appearance ([3]; KCl 0.15 M, ionic strength 0.15 M, conc. 1.43%) | Appearance ([3]; KCl 0.2 M, ionic strength 0.2 M, conc. 1.4%) | Appearance ([3]; KCl 0.25 M, ionic strength 0.25 M, conc. 1.38%) | Appearance ([3]; MgCl2 0.05 M, ionic strength 0.15 M, conc. 1.48%) | Appearance ([3]; MgCl2 0.067 M, ionic strength 0.2 M, conc. 1.47%) | Appearance ([3]; MgCl2 0.083 M, ionic strength 0.25 M, conc. 1.46%) | Appearance ([3]; MgCl2 0.1 M, ionic strength 0.3 M, conc. 1.45%) | Appearance ([3]; MgCl2 0.117 M, ionic strength 0.35 M, conc. 1.44%) | Appearance ([3]; NaCl 0.05 M, ionic strength 0.5 M, conc. 1.48%) | Appearance ([3]; NaCl 0.1 M, ionic strength 0.1 M, conc. 1.45%) | Appearance ([3]; NaCl 0.15 M, ionic strength 0.15 M, conc. 1.43%) | Appearance ([3]; NaCl 0.2 M, ionic strength 0.2 M, conc. 1.4%) | Appearance ([3]; NaCl 0.25 M, ionic strength 0.25 M, conc. 1.38%)
7.0: Peptide solution pH ([1]; NaOH volume and conc. not given)
Cloudy, phase-separated: Appearance ([1]; 0.1N NaOH 350 μL/mL added in 2.5% solution, conc. 1.85%) | Appearance ([1]; peptide solution pH 7.0, NaOH volume and conc. not given) | Appearance ([3]; CaCl2 0.167 M, ionic strength 0.5 M, conc. 1.42%) | Appearance ([3]; KCl 0.4 M, ionic strength 0.4 M, conc. 1.3%) | Appearance ([3]; MgCl2 0.167 M, ionic strength 0.5 M, conc. 1.42%) | Appearance ([3]; NaCl 0.4 M, ionic strength 0.4 M, conc. 1.3%)
> 0.3 M: ionic strength level with NaCl above which solutions begin phase separation becoming cloudy and weak ([2]; NaCl)
0.3˜0.4 M: critical salt ionic strengths at which peptides become cloudy [3]
Clear, thick and stiffer gel: Appearance ([1]; 0.1N NaOH 150 μL/mL added in 2.5% solution, conc. 2.17%) | Appearance ([1]; 0.1N NaOH 200 μL/mL added in 2.5% solution, conc. 2.08%) | Appearance ([1]; 0.1N NaOH 225 μL/mL added in 2.5% solution, conc. 2.04%)
Clear, thick gel: Appearance ([3]; CaCl2 0 M, ionic strength 0 M, conc. 1.5%) | Appearance ([3]; KCl 0 M, ionic strength 0 M, conc. 1.5%) | Appearance ([3]; MgCl2 0 M, ionic strength 0 M, conc. 1.5%) | Appearance ([3]; NaCl 0 M, ionic strength 0 M, conc. 1.5%)
higher: rheological property after adjusting ionic strength level with NaCl ([2]; NaCl to 0.7 M (PuraMatrix), 0.2 M (KLD12) or 0.02 M (IEIK13), 1% solutions)
0.25˜0.35 M: salt ionic strength increase that did not change the clear color, while apparent stiffness increased ([3]; depending on different salts, 1.5% peptide solutions)
Slightly cloudy, brittle gel: Appearance ([1]; 0.1N NaOH 250 μL/mL added in 2.5% solution, conc. 2.0%) | Appearance ([3]; CaCl2 0.15 M, ionic strength 0.45 M, conc. 1.43%) | Appearance ([3]; KCl 0.35 M, ionic strength 0.35 M, conc. 1.32%) | Appearance ([3]; MgCl2 0.15 M, ionic strength 0.45 M, conc. 1.43%) | Appearance ([3]; NaCl 0.35 M, ionic strength 0.35 M, conc. 1.32%)
Slightly cloudy, thick, stiffer gel: Appearance ([3]; CaCl2 0.133 M, ionic strength 0.4 M, conc. 1.43%) | Appearance ([3]; KCl 0.3 M, ionic strength 0.3 M, conc. 1.35%) | Appearance ([3]; MgCl2 0.133 M, ionic strength 0.4 M, conc. 1.43%) | Appearance ([3]; NaCl 0.3 M, ionic strength 0.3 M, conc. 1.35%)
